Source: patent US20030103946A1, “Immunotherapeutic methods and molecules” (Imperial College Innovations Limited, priority 2000, published 2003)
Like-named read-outs stand apart in the source and are kept apart here.

Assays:
[1] = system: CTL from HLA-A0201 negative donors; assay: Stimulation of peptide-specific allorestricted CTL responses by peptide; format: cell-based, human
Text: Peptide-specific CTL were isolated from HLA-A0201 negative donors using the method described in WO 97/26328. Three peptide-specific lines were established and found to show specific killing of T2 target cells presenting peptide 1218 but not targets presenting control HLA-A0201− binding peptides (HBV(18-27)).
Peptide-specific CTL were isolated from HLA-A0201 negative donors using the method described in WO 97/26328. Three peptide-specific lines were established and found to show specific killing of T2 target cells presenting peptide 1218 but not targets presenting control peptides.

HLA-A0201 = biological target: T1, HLA-A0201 (Homo sapiens, UniProt P04439, D140Y/D185E/D98H/E176V/E277Q/G131W/G231S/I119V/I121R/I166T/I218V/L300P/L318F/N151K/N90K/P208A/P217A/Q86G/Q94H/R138H/R169H/T345S); assay: T2 assay: HLA-A0201 binding of peptides (stabilisation of HLA-A0201 expression in TAP-deficient T2 cells)
T1 construct: ability of peptides to stabilise HLA-A0201 expression in the TAP-deficient T2 cells; endogenous in cells; host or cells: T2 cells (human, TAP-deficient; ATCC CRL 1992)
Method: By “HLA-binding” peptide we mean a peptide which binds to one or more HLA molecules. Typically, a peptide will show HLA binding in a T2 binding assay when present in a concentration range of 10 μM to 1 nM. Whether or not a peptide of human CD45 is an HLA-binding peptide can be determined using methods known in the art. These methods include the T2 HLA stabilisation assay described in FIG. 1, and the method described by Elvin et al (1993) J. Immunol. Methods 158, 161-171.
Peptide binding was measured using the T2 assay that is based on the ability of peptides to stabilise HLA-A0201 expression in the TAP-deficient T2 cells.
Sixteen peptides of the CD45 molecule were selected and 14 of them we tested in HLA-A0201 binding assays as described in the legend to FIG. 1.

HLA-A0201 binding (HLA-A0201): binds HLA-A0201
HLA-A0201 binding (HLA-A0201; listed as Peptide 1218): one of the best binders
HLA-A0201 binding (HLA-A0201; listed as p1218): one of the best binding peptides
HLA-A0201 binding (HLA-A0201; listed as peptide 1218): one of the best binders
Sequence: FLYDVIAST [huCD45/1218, peptide of human CD45]
induction of peptide specific CTL ([1]; listed as Peptide 1218): can induce peptide specific CTL
induction of peptide specific CTL ([1]; listed as p1218): reliably generate peptide-specific, allorestricted CTL
